Measured values reported in the DeepSol protein solubility set.

Assay: soluble on expression in E. coli; label from the status in PepcDB or PDB records

Sequence | soluble on expression in E. coli
TGRVKWTLGGNIYLNRNKVDDISGNELLGTSYLAGGGVFSQSIHITKAGYPVGSFYGYVVDGVYQNEAEAKLAPFDTPQATPGSLRFKDISGPDGLPDGKITSDDMTIIGTAEPKFNYGINSELSWKGLTLSMIFTGRVGGDIANLNRYFLDSFTDTNDNIRAEAWEGRWQGEGTSNFYPAVNGSQGSSYFNKRFSTFLLEDGSFFRLKNLTLAYQFSLKKLRWLRSVRVFGTVTNVFTITNYSGYDPEVSITSGAMSPNVDYAAYPSSRTYSMGINLAF | not soluble
TIEARTAQSTPSAPPQKVMCVSMGSTTVRVSWVPPPADSRNGVITQYSVAYEAVDGEDRGRHVVDGISREHSSWDLVGLEKWTEYRVWVRAHTDVGPGPESSPVLVRTDEDVPSGPPRKVE | soluble
TLDEVKSLWDPRGISGTETASPQSDTPQAVSGASQPRWLRLSNGKQVDLRDWKVVLFMQGHCPYCHKFDPVLKQLAGQYGFSVFSYTIDGQGDDAFPEALPAPPDVMQTFFPNIPVATPTTFLVNVNTLAAYPILQGATDAQGFMARVDTVFQ | not soluble
TMLSFVTTDANIDHGHLQGALSAITNETFNRITVDGDTSTNDMVVVMASGLAENETLTPEHPDWANFYKALQLACEDLAKQIARDGEGATKLIEVEVTGAANDQEAGMVAKQIVGSDLVKTAIYGADANWGRIICAIGYSGCEVNQETIDIAIGPIVTLKQSEPTGFSEEEATAYLKEADPVKISVNLHIGNGTGKAWGCDLTYDYVRINAGYRT | soluble
TNAVNIVMRQPTTPNFSSALNITSANEGGSAMQIRGVEKALGTLKITHENPSVDKEYDENAAALSIDIVKKQKGGKGTAAQGIYINSTSGTAGKMLRIRNKNKDKFYVGPDGDFWSCASSIVDGNLTVKDPTSGKHAATKDYVDEKIAELKKLILKK | soluble
TNTEQFCTGCHEMRDNVYAELKGTIHYTNRSGVRAICSDCHVPHNWTDKIARKTQASKEVWGKIFGTINTREKFVEKRLELAQHEWARLKANDSLECRNCHNYESMDFTRQSMRAQNMHSTYLADKSKTCIDCHKGIAHTLPRMPPDQTSLAPPAAGPARADTGHAER | not soluble
TPLLKTEFFPQSDNGYIQIQAEYPVGTGVNLPRAFALRMIDSWEKEIPEIDRTSFSVGQAEASSMFAAMQDNGTNIITFHIGLTGRNERKRSMNEVADQIRTMLDDYPEIHSYKVTPGGSGGGMGGQPTVNLDIYGYDFNKTGDLAERFSRLMKEDARCAQATISRKDYVPEYQFVFDRTKLAENGLNSTTAAMFLRNRVNGRVASTYREEGDEYDIRVRLAPEFRRSLRDLENILIYTPQGKGVRLGELGKIEELYTPPTIERKDRQRVVIVASTAVKGAALSDLVEVAKEKIAQLEIPDGIDYKISGTYEDQQKTFAD | not soluble
TPMYESTSELYVLSKSTSITSLADIQTGTSLTNDYIVVVKGRPVLDQVIENLNLNESYKTLGGRVTLDNPSNSRVLNITVTDPDPQMAKTIADEIAKVASAYIAEKMKQDPPTIIQSGYDDGGAVSPNIGKNT | not soluble
TPTRFLVAFDGSATSRKTVEMVSRSPLLQGMQAHVLTAGSDAGEARQALQWAREQLAQGGFDAITHHAAERPADALAAYAGQHGIDMLVMGAYGHSRIRQLVLGSTTTEILSRVSLAVLILR | not soluble
TSALIERIDAIIVDLPTIRPHKLAMHTMQQQTLVVLRVRCSDGVEGIGEATTIGGLAYGYESPEGIKANIDAHLAPALIGLAADNINAAMLKLDALAKGNTFAKSGIESALLDAQGKRLGLPVSELLGGRVRDSLEVAWTLASGDTARDIAEARHMLEIRRHRVFKLKIGANPVEQNLKHVVTIKRELGDSASVRVDVNQYWDESQAIRACQVLGDNGIDLIEQPISRINRGGQVRLNQRTPAPIMADESIESVEDAFSLAADGAASIFALKIAKNGGPRAVLRTAQIAEAAGIGLYGGTMLEGSIGTLASAHAFLTLRQLTWGTELFGPLLLTEEIVNEPPQYRDFQLHIPRTPGLGLTLDEARLARFARR | soluble
TSITPSSQDICRICHCEGDDESPLITPCHCTGSLHFVHQACLQQWIKSSDTRCCELCKYEFIMETKL | soluble
TSLFAQEIRLSKRHEEIVSQRLMLLQQMENKLGDQHTEKASQLQTVETAFKRNLSLLKDIEAAEKSLQTRIHPLPRPEVVSLETRYWASV | soluble
TSLFTTADHYHTPLGPDGTPHAFFEALRDEAETTPIGWSEAYGGHWVVAGYKEIQAVIQNTKAFSNKGVTFPRYETGEFELMMAGQDDPVHKKYRQLVAKPFSPEATDLFTEQLRQSTNDLIDARIELGEGDAATWLANEIPARLTAILLGLPPEDGDTYRRWVWAITHVENPEEGAEIFAELVAHARTLIAERRTNPGNDIMSRVIMSKIDGESLSEDDLIGFFTILLLGGIDATARFLSSVFWRLAWDIELRRRLIAHPELIPNAVDELLRFYGPAMVGRLVTQEVTVGDITMKPGQTAMLWFPIASRDRSAFDSPDNIVIERTPNRHLSLGHGIHRCLGAHLIRVEARVAITEFLKRIPEFSLDPNKECEWLMGQVAGMLHVPIIFPKGKRLSE | soluble
TSTMTDTVFSNSSNRWMYPSDRPLQSNDKEQLQAGWSVHPGGQPDRQRKQEELTDEEKEIINRVIARAEKMEEMEQERIGRLVDRLENMRKNVAGDGVNRCILCGEQLGMLGSACVVCEDCKKNVCTKCGVETNNRLHSVWLCKICIEQREVWKRSGAWFFKGFPKQVLPQPMPIKKTKPQQPVSEPAAPEQPAPEPKHPARAPARGDSEDRRGPGQKTGPDPASAPGRGNYGPPVRRASEARMSSSSRDSESWDHSGGAGDSSRSPAGLRRANSVQASRPAPGSVQSPAPPQPGQPGTPGGSRPGPGPAGRFPDQKPEVAPSDPGTTAPPREERTGGVGGYPAVGAREDRMSHPSGPYSQASAAAPQPAAARQPPPPEEEEEEANSYDSDEATTLGALEFSLLYDQDNSSLQCTIIKAKGLKPMDSNGLADPYVKLHLLPGASKSNKLRTKTLRNTRNPIWNETLVYHGITDEDMQRKTLRISVCDEDKFGHNEFIGETRFSLKKLKPNQRKNFNICLERVIPMKRAGTTGSARGMALYEEEQVERVGDIEERGKILVSLMYSTQQGGLIVGIIRCVHLAAMDANGYSDPFVKLWLKPDMGKKAKHKTQIKKKTLNPEFNEEFFYDIKHSDLAKKSLDISVWDYDIGKSNDYIGGCQLGISAKGERLKHWYECLKNKDKKIERWHQLQNENHVSSD | soluble
TTEEKKEEFLATVIDSVGDGVIVIDLDGRIALMNPAAEEISGISRRQAVGHRFALVFHREAVLREMVGKTATSGMTISDHENIVIRKLKQLTPVSATTFPLMLPHGETTGTILVLRD | not soluble
TTFFGRETAFFNGTEKLGRKFSLPVVYMDVEKTGHDVFTGTIKLLHHPQDDSPEGSITEEYVRLMETTIRRDPSQWLWSHRRWKRPRLHNTRQL | not soluble
TTHFTVADRWGNVVSYTTTIEQLFGTGIMVPDYGVILNNELTDFDAIPGGANEVQPNKRPLSSMTPTILFKDDKPVLTVGSPGGATIISSVLQTILYHIEYGMELKAAVEEPRIYTNSMSSYRYEDGVPKDVLSKLNGMGHKFGTSPVDIGNVQSISIDHENGTFKGVADSSRNGAAIGINLKRKLEHHHHHH | soluble
TTLASIGKDIIEDADGIAMPHQWLEGNLPVSAKCTVCDKTCGSVLRLQDWRCLWCKAMVHTSCKESLLTKC | soluble
VAKPKKTQPAATAPRVDVFDAKGKPKTVDASALRIAFADGRSLLVSLPDTADGAITLVAEHADAATHAMLALRPEHHDSITLRIEAEPAAEAEDADDALAGAEMLTLDLTVQHGDALKAAARKALPKQKDIEAWIAPALFADAQLNVRFVDEEEGRTLNHTYRGKDYATNVLTFSYAETEDDPVAADIVLCCPVVEQEAKDQGKPLRAHYAHLIVHGALHAQGYDHEDPAQAEEMEGIETEVLAGLGFPDPYADR | soluble
VALTVYYPPRVVSLEEPELRLEHCIEFVVRGNPPPTLHWLHNGQPLRESKIIHVEYYQEGEISEGCLLFNKPTHYNNGNYTLIAKNPLGTANQTINGHFLKEPFPVDEVSPTPPITVT | soluble
VAPLGLSVPSDVELPPTAKMHAIIERTASFVCRQGAQFEIMLKAKQARNSQFDFLRFDHYLNPYYKFIQKAMKEGRYTVLAENKSDEKKKSGVS | soluble
